# Reference: patent US20260124210A1
# Target: mouse PD-L1 (surface receptor on LLC-JSP and 4T1 murine cancer cells) (mouse) (UniProt Q9EP73)
# Assay: flow cytometry uptake of dye-siRNA tagged p-iPLK1-NP by 4T1 cells, 1 h exposure (FIG. 11B)
# mouse PD-L1 (surface receptor on LLC-JSP and 4T1 murine cancer cells) (mouse), sequence (Q9EP73 19-290): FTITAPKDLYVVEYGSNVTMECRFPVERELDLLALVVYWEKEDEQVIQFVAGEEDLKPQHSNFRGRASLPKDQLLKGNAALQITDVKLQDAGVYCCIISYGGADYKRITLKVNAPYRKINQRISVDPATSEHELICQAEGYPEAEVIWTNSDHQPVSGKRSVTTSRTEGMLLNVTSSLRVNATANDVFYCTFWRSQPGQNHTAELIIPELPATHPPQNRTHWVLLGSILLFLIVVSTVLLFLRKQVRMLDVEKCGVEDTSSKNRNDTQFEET
substance,measurement,value
"p-iPLK1-NP (mesoporous silica nanoparticle coated with PEI and PEG, loaded with PLK1 inhibitor volasertib and conjugated with mouse PD-L1 antibody)","cellular uptake, PD-L1 high cells vs. PD-L1 low cells (fold)",4 fold
